# Measurements taken from the supplement of paper PMC11246515.
# ± gives the standard deviation of the averaged measurements.
# Assay: total protein half-life in vivo (active degradation + dilution); higher = more stable protein
# [1] = wild type E. coli NCM3722, growth: C-lim chemostat, doubling time 12 h
# [2] = E. coli NCM3722 delta-clpP delta-lon delta-hslV, growth: N-lim chemostat, doubling time 6 h
# [3] = E. coli NCM3722 delta-clpP, growth: N-lim chemostat, doubling time 6 h
# [4] = E. coli NCM3722 delta-hslV, growth: N-lim chemostat, doubling time 6 h
# [5] = E. coli NCM3722 delta-lon, growth: N-lim chemostat, doubling time 6 h
# [6] = E. coli NCM3722 delta-smpB, growth: N-lim chemostat, doubling time 6 h
# [7] = wild type E. coli NCM3722, growth: C-lim chemostat, doubling time 3 h
# [8] = wild type E. coli NCM3722, growth: C-lim chemostat, doubling time 6 h
# [9] = wild type E. coli NCM3722, growth: N-lim chemostat, doubling time 6 h
# [10] = wild type E. coli NCM3722, growth: N-lim chemostat, doubling time 12 h
# [11] = wild type E. coli NCM3722, growth: P-lim chemostat, doubling time 6 h
# [12] = wild type E. coli NCM3722, growth: P-lim chemostat, doubling time 12 h
Sequence,total protein half-life in vivo [1] [h],total protein half-life in vivo [2] [h],total protein half-life in vivo [3] [h],total protein half-life in vivo [4] [h],total protein half-life in vivo [5] [h],total protein half-life in vivo [6] [h],total protein half-life in vivo [7] [h],total protein half-life in vivo [8] [h],total protein half-life in vivo [9] [h],total protein half-life in vivo [10] [h],total protein half-life in vivo [11] [h],total protein half-life in vivo [12] [h]
MKKIECACNFLMDKDAQGYIDLSDLDLTSCHFKGDVISKVSFLSSNLQHVTFECKEIGDCNFTTAIVDNVIFRCRRLHNVIFIKASGECVDFSKNILDTVDFSQSQLGHSNFRECQIRNSNFDNCYLYASHFTRAEFLSAKEISFIKSNLTAVMFDYVRMSTGNFKDCITEQLELTIDYSDIFWNEDLDGYINNIIKMIDTLPDNAMILKSVLAVKLVMQLKILNIVNKNFIENMKKIFSHCPYIKDPIIRSYIHSDEDNKFDDFMRQHRFSEVNFDTQQMIDFINRFNTNKWLIDKNNNFFIQLIDQALRSTDDMIKANVWHLYKEWIRSDDVSPIFIETEDNLRTFNTNELTRNDNIFILFSSVDDGPVMVVSSQRLHDMLNPTKDTNWNSTYIYKSRHEMLPVNLTQETLFSSKSHGKYALFPIFTASWRAHRIMNKGV,11.2,,,,,,,,,,,
MTPTIELICGHRSIRHFTDEPISEAQREAIINSARATSSSSFLQCSSIIRITDKALREELVTLTGGQKHVAQAAEFWVFCADFNRHLQICPDAQLGLAEQLLLGVVDTAMMAQNALIAAESLGLGGVYIGGLRNNIEAVTKLLKLPQHVLPLFGLCLGWPADNPDLKPRLPASILVHENSYQPLDKGALAQYDEQLAEYYLTRGSNNRRDTWSDHIRRTIIKESRPFILDYLHKQGWATR,9.24 ± 0.9,4.82 ± 1,3.94 ± 0.13,4.1 ± 0.27,4.4 ± 0.54,3.98 ± 0.23,2.93 ± 0.35,4.8 ± 0.82,3.89 ± 0.47,7.96 ± 0.79,5.01 ± 0.35,9.93 ± 2.7
MDFPQQLEACVKQANQALSRFIAPLPFQNTPVVETMQYGALLGGKRLRPFLVYATGHMFGVSTNTLDAPAAAVECIHAYSLIHDDLPAMDDDDLRRGLPTCHVKFGEANAILAGDALQTLAFSILSDADMPEVSDRDRISMISELASASGIAGMCGGQALDLDAEGKHVPLDALERIHRHKTGALIRAAVRLGALSAGDKGRRALPVLDKYAESIGLAFQVQDDILDVVGDTATLGKRQGADQQLGKSTYPALLGLEQARKKARDLIDDARQSLKQLAEQSLDTSALEALADYIIQRNK,11.5 ± 0.9,4.5 ± 0.14,5.14 ± 0.67,4.44 ± 0.056,4.579 ± 0.024,4.63 ± 0.38,3.14 ± 0.08,5.849 ± 0.0072,4.46 ± 0.66,6.952 ± 0.057,5.75 ± 0.13,11.2 ± 0.6
MSDKFGEGRDPYLYPGLDIMRNRLNIRQQQRLEQAAYEMTALRAATIELGPLVRGLPHLRTIHRQLYQDIFDWAGQLREVDIYQGDTPFCHFAYIEKEGNALMQDLEEEGYLVGLEKAKFVERLAHYYCEINVLHPFRVGSGLAQRIFFEQLAIHAGYQLSWQGIEKEAWNQANQSGAMGDLTALQMIFSKVVSEAGESE,10.2 ± 1.9,4.96 ± 0.27,4.09 ± 0.47,4.81 ± 0.64,4.4 ± 0.57,4.69 ± 0.42,,6.07 ± 0.18,4.39 ± 0.17,7.12 ± 0.43,6.02 ± 0.4,7.72 ± 3.9
MFYPDPFDVIIIGGGHAGTEAAMAAARMGQQTLLLTHNIDTLGQMSCNPAIGGIGKGHLVKEVDALGGLMAKAIDQAGIQFRILNASKGPAVRATRAQADRVLYRQAVRTALENQPNLMIFQQAVEDLIVENDRVVGAVTQMGLKFRAKAVVLTVGTFLDGKIHIGLDNYSGGRAGDPPSIPLSRRLRELPLRVGRLKTGTPPRIDARTIDFSVLAQQHGDNPMPVFSFMGNASQHPQQVPCYITHTNEKTHDVIRSNLDRSPMYAGVIEGVGPRYCPSIEDKVMRFADRNQHQIFLEPEGLTSNEIYPNGISTSLPFDVQMQIVRSMQGMENAKIVRPGYAIEYDFFDPRDLKPTLESKFIQGLFFAGQINGTTGYEEAAAQGLLAGLNAARLSADKEGWAPARSQAYLGVLVDDLCTLGTKEPYRMFTSRAEYRLMLREDNADLRLTEIGRELGLVDDERWARFNEKLENIERERQRLKSTWVTPSAEAAAEVNAHLTAPLSREASGEDLLRRPEMTYEKLTTLTPFAPALTDEQAAEQVEIQVKYEGYIARQQDEIEKQLRNENTLLPATLDYRQVSGLSNEVIAKLNDHKPASIGQASRISGVTPAAISILLVWLKKQGMLRRSA [P0A6U3],3.19 ± 1.2,5.157 ± 0.0054,4.25 ± 0.18,1.64 ± 0.088,1.831 ± 0.014,1.73 ± 0.065,1.42 ± 0.081,2.35 ± 0.068,1.71 ± 0.14,2.48 ± 0.15,1.9 ± 0.13,3.12 ± 0.84
MLRFSANLSMLFGEYDFLARFEKAAQCGFRGVEFMFPYDYDIEELKHVLASNKLEHTLHNLPAGDWAAGERGIACIPGREEEFRDGVAAAIRYARALGNKKINCLVGKTPAGFSSEQIHATLVENLRYAANMLMKEDILLLIEPINHFDIPGFHLTGTRQALKLIDDVGCCNLKIQYDIYHMQRMEGELTNTMTQWADKIGHLQIADNPHRGEPGTGEINYDYLFKVIENSDYNGWVGCEYKPQTTTEAGLRWMDPYR,10.1,4.29 ± 0.63,5.97,,4.98,3.59 ± 0.17,,,3.73,6.46,5.52,7.81
MSANENNLIWIDLEMTGLDPERDRIIEIATLVTDANLNILAEGPTIAVHQSDEQLALMDDWNVRTHTASGLVERVKASTMGDREAELATLEFLKQWVPAGKSPICGNSIGQDRRFLFKYMPELEAYFHYRYLDVSTLKELARRWKPEILDGFTKQGTHQAMDDIRESVAELAYYREHFIKL [P0A784],13 ± 1.9,,4.86 ± 0.7,4.688 ± 0.041,6.132 ± 0.0019,4.64 ± 0.34,3.41 ± 0.36,,4.65 ± 0.63,8.25 ± 0.81,5.87 ± 0.32,13.6 ± 0.93
MAHIVTLNTPSREDWLTQLADVVTDPDELLRLLNIDAEEKLLAGRSAKKLFALRVPRSFIDRMEKGNPDDPLLRQVLTSQDEFVIAPGFSTDPLEEQHSVVPGLLHKYHNRALLLVKGGCAVNCRYCFRRHFPYAENQGNKRNWQTALEYVAAHPELDEMIFSGGDPLMAKDHELDWLLTQLEAIPHIKRLRIHSRLPIVIPARITEALVECFARSTLQILLVNHINHANEVDETFRQAMAKLRRVGVTLLNQSVLLRDVNDNAQTLANLSNALFDAGVMPYYLHVLDKVQGAAHFMVSDDEARQIMRELLTLVSGYLVPKLAREIGGEPSKTPLDLQLRQQ,3.35 ± 1.6,5.05 ± 0.77,2.63 ± 0.045,1.02 ± 0.14,1.61 ± 0.14,1.33,1.41 ± 0.071,1.57 ± 0.15,1.58 ± 0.58,2.05,1.51 ± 0.33,2.71 ± 0.88
